# Experimental data as given in patent US20200407445A1 (ITEOS THERAPEUTICS, published 2020).
# Numbering of substitutions follows the chain as printed.
# T1: human TIGIT expressed on cells (human, UniProt Q495A1 22-244)
# T1 sequence (looked up): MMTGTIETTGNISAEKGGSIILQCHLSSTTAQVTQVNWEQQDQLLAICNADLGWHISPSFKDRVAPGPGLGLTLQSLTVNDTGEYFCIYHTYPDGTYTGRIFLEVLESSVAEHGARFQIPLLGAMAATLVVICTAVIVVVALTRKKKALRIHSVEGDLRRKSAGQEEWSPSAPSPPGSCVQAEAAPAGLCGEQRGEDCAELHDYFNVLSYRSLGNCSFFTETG
# T2: Human TIGIT-His (human, UniProt Q495A1 22-141, biotinylated in the ForteBio Fab assay)
# T2 construct: bought (Creative Biomart); also called Biotinylated Human TIGIT HIS; TIGIT-His monomer; not shown: His tag
# T2 sequence (looked up): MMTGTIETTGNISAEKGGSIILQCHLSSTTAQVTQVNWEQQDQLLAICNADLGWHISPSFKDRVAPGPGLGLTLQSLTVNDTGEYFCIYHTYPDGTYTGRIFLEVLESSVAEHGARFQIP
# T3: Human TIGIT-Fc (human, UniProt Q495A1 22-141)
# T3 construct: bought (Creative Biomart); also called TIGIT-Fc antigen; TIGIT-Fc fusion antigen; not shown: Fc part
# T3 sequence (looked up): T2 sequence (looked up)
# T4: mouse TIGIT expressed on cells (mouse, UniProt P86176 29-249)
# T4 construct: whole, on cells; on Jurkat cells engineered to express mouse TIGIT; also called mTIGIT; Jurkat-mTIGIT
# T4 sequence (looked up): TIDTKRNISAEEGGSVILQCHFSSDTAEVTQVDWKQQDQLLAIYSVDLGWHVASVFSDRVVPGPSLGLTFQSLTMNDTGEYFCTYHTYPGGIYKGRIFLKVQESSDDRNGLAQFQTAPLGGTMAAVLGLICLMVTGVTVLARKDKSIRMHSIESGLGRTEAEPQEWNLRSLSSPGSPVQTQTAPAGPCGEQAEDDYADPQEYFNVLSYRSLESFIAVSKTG
# B1: anti-TIGIT antibody clone 29513 (IgG) (antibody, V domains shown)
# VH: QVQLVQSGAEVKKPGSSVKVSCKASGGTFQNYAISWVRQAPGQGLEWMGVIVPIFGTANYAQKFQGRVTVTADESTSTAYMELSSLRSEDTAVYYCARLHLGQKAYYGMDVWGQGTTVTVSS
# VL: DIQMTQSPSSLSASVGDRVTITCRASQSISSYLNWYQQKPGKAPKLLIYAASSLQSGVPSRFSGSGSGTDFTLTISSLQPEDFATYYCQQRYVFPPTFGGGTKVEIK
# B2: anti-TIGIT antibody clone 29520 (IgG) (antibody, V domains shown)
# VH: QVQLVESGGGLVQPGRSLRLSCAASGFTFRDYAMHWVRQAPGKGLEWVSGITWNSGLIGYADSVKGRFTISRDNAKNSLYLQMNSLRAEDTALYYCAKPVPRLRGLDVWGQGTMVTVSS
# VL: DIQLTQSPSSVSASVGDRVTITCRASQGISSWLAWYQQKPGKAPKLLIYGASSLQSGVPSRFSGSGSGTDFTLTISSLQPEDFATYYCQQAFYLPWTFGGGTKVEIK
# B3: anti-TIGIT antibody clone 29523 (IgG) (antibody, V domains shown)
# VH: EVQLVESGGGVVQPGRSLRLSCAASGFTFGSYYMHWVRQAPGKGLEWVAVIWPDGSNKLYADSVKGRFTISRDNSKNTLYLQMNSLRAEDTALYYCAKPVPKSRALDVWGQGTMVTVSS
# VL: B2 VL
# B4: anti-TIGIT antibody clone 29527 (IgG) (antibody, V domains shown)
# VH: B3 VH with E1Q, G30S, Y32S, W52G, P53A, L59Y, K65E, K102R, S103R, A105G
# VL: B2 VL
# B5: anti-TIGIT antibody clone 29494 (IgG) (antibody, V domains shown)
# VH: QVQLQESGPGLVKPSETLSLTCTVSGGSISSGSYYLAWIRQPPGKGLEWIGSIFRSGSTYYNPSLESRVTISVDTSKNQFSLKLSSVTAADTAVYYCAIEGANFKDFGYVAFDIWGQGTMVTVSS
# VL: EIVMTQSPATLSVSPGERATLSCRASQSVSSNLAWYQQKPGQAPRLLIYGASTRATGIPARFSGSGSGTEFTLTISSLQSEDFAVYYCQQSPPWPRTFGGGTKVEIK
# B6: anti-TIGIT antibody clone 29499 (IgG) (antibody, V domains shown)
# VH: B5 VH with V2L, G32S, S33R, L36W, F54G, R55T, E66K, A90T, K105R
# VL: B5 VL
# B7: anti-TIGIT antibody clone 31288 (IgG) (antibody, V domains shown)
# VH: B5 VH with V2L, M120T
# VL: B5 VL
# notes: human IgG
# Legend:
# [1] = target: T1, human TIGIT expressed on cells; assay: cell-based or functional assay
# [2] = target: T1, human TIGIT expressed on cells; assay: flow cytometry, 100 nM Ab, Jurkat-hTIGIT vs untransfected
# Description: (§1) Antibodies were incubated with the cells for 20 min at 4° C. in FACS buffer. […] Geometric mean fluorecence intensity was analysed using LSR BD Fortessa. Cell binding was recorded as the median florescence intensity of PE on the transfected line compared to the un-transfected line for each antibody (Table 3).
# [3] = target: T2, Human TIGIT-His; assay: MSD-SET, monovalent (Fab or mAb titrated, not said which)
# Description: (§2) Briefly, solution equilibrium titrations (SET) were performed in PBS+0.1% IgG-Free BSA (PBSF) with antigen (TIGIT-His monomer) held constant at 10-100 pM and incubated with 3- to 5-fold serial dilutions of Fab or mAbs starting at 10 pM-10 nM. Antibodies (20 nM in PBS) were coated onto standard bind MSD-ECL plates overnight at 4° C. or at room temperature for 30 min. Plates were then blocked by BSA for 30 min with shaking at 700 rpm, followed by three washes with wash buffer (PBSF+0.05% Tween 20). SET samples were applied and incubated on the plates for 150s with shaking at 700 rpm followed by one wash. Antigen captured on a plate was detected with 250 ng/mL sulfotag-labeled streptavidin in PBSF by incubation on the plate for 3 min. The plates were washed three times with wash buffer and then read on the MSD Sector Imager 2400 instrument using 1× Read Buffer T with surfactant. The percent free antigen was plotted as a function of titrated antibody in Prism and fit to a quadratic equation to extract the KD. To improve throughput, liquid handling robots were used throughout MSD-SET experiments, including SET sample preparation.
# [4] = target: T1, human TIGIT expressed on cells; assay: flow cytometry, competition with CD155-His (5 ug/ml) on Jurkat-hTIGIT
# [5] = target: T3, Human TIGIT-Fc; assay: ForteBio BLI, IgG KD, avid
# Description: Briefly, ForteBio affinity measurements were performed by loading IgGs on-line onto AHQ sensors. Sensors were equilibrated off-line in assay buffer for 30 min and then monitored on-line for 60 seconds for baseline establishment. Sensors with loaded IgGs were exposed to 100 nM antigen (human TIGIT-Fc, human TIGIT-His or cyno TIGIT-Fc) for 5 minutes, afterwards they were transferred to assay buffer for 5 min for off-rate measurement. Kinetics were analyzed using the 1:1 binding model.
# [6] = target: T1, human TIGIT expressed on cells; assay: cell-based or functional assay; remark: listed apart in the source
# [7] = target: T2, Human TIGIT-His; assay: MSD-SET, monovalent (Fab or mAb titrated, not said which); remark: listed apart in the source
# Description: as §2
# [8] = target: T4, mouse TIGIT expressed on cells; assay: flow cytometry, 100 nM Ab, Jurkat-mTIGIT vs untransfected
# Description: as §1
# [9] = target: T2, Human TIGIT-His; assay: Biacore, IgG captured, TIGIT-His in solution
# Description: (§3) Biosensor analysis was conducted at 25° C. in a HBS-EP buffer system (10 mM HEPES pH 7.3, 150 mM NaCl, 3 mM EDTA, 0.05% Surfactant P20) using a Biacore 8K optical biosensor docked with a CMS sensor chip (GE Healthcare, Marlboro, Mass.). The sample hotel was maintained at 8° C. […] This surface type provided a format for reproducibly capturing fresh analysis antibody after each regeneration step. Flow cell 2 was used to analyze captured antibody (60-90 RU) while flow cell 1 was used as a reference flow cell. […] Each of the antigen sample concentrations were run as a single replicate. Two blank (buffer) injections also were run and used to assess and subtract system artefacts. The association (300 s) and dissociation (600 s) phases for all antigen concentrations were performed at a flow rate of 30 uL/min. The surface was regenerated with three sequential injections (15 s, 15 s and 60 s) of 10 mM glycine, pH 1.5 at a flow rate of 30 uL/min. The data was aligned, double referenced, and fit to a 1:1 binding model using Biacore 8K Evaluation Software, version 1.0.
# [10] = target: T5, cynomolgus TIGIT on primary CD8+ T cells (Macaca fascicularis (cynomolgus), UniProt A0A7N9I9V4 89-312); assay: flow cytometry, cynomolgus CD69+CD8+ T cells, FIG. 11
# T5 construct: whole, on cells
# T5 sequence (A0A7N9I9V4 entry or part of it): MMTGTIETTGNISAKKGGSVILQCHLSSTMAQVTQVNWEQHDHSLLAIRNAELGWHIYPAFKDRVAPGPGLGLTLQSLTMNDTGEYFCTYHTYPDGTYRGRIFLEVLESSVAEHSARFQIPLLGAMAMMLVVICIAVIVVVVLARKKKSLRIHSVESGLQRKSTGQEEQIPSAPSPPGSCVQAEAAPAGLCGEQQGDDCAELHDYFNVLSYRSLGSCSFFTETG
# Description: Isolated PBMCs from Macaca fascicularis were obtained from BioPRIM. Cells were thawed and stimulated using the T cell activation/expansion kit for non-human primate (Miltenyi Biotec) at 1:2 (bead:cell ratio) following the manufacturer's specifications. The next day, cells were collected, counted and distributed at 5×10^4 cells per well. […] Then, cells were washed and incubated with the following antibodies and LVD mix for data illustrated in FIGS. 11A and 11B: anti-CD4-PercP-Cy5.5 (clone A161A1, BioLegend 357414); anti-CD8-BV510 (clone SK1, BD Bioscience 563919), CD69-APC-Cy7 (Clone FN50, BioLegend, 310914) and LVD efluor 520 (eBioscience 65-0867-14). Stained cells were analysed by FACS using BD LSR Fortessa. The EC50 value of binding was calculated using the % of positive TIGIT stained cells gated on LVD-CD69+CD8+ T cells.
# [11] = target: T1, human TIGIT expressed on cells; assay: flow cytometry on Jurkat-hTIGIT, FIG. 9
# Description: as §1
# [12] = target: T2, Human TIGIT-His; assay: Biacore 8K, IgG on CM5 chip, human TIGIT-HIS in solution
# Description: as §3
# [13] = target: T1, human TIGIT expressed on cells; assay: flow cytometry, total human primary CD8+ T cells, % TIGIT stained cells, FIG. 10A
Binder,"Induction over Isotype control (fold change), luciferase, Jurkat-hTIGIT + CHO-TCR-CD155, 133 nM [1] [fold]",FON (Fold Over Negative) [2] [fold],Kd [3] [nM],IC50 [4] [nM],Kd [5] [nM],"increase of IFNg secretion over isotype control, human primary CD8+ T cells + CHO-TCR-CD155 [6] [fold]",Kd [7] [nM],FON (Fold Over Negative) [8] [fold],Kd [9] [nM],EC50 [10] [nM],EC50 [11] [nM],Kd [12] [nM],"EC50 for increase in IFNg secretion by human primary CD8 T cells, FIG. 13B [6] [nM]","EC50 of Jurkat-hTIGIT cell activation (luciferase), FIG. 12B [6] [nM]",EC50 [13] [nM]
B1,3.26,156,0.025,0.094,0.392,3.2,0.025,406,,,,,,,
B2,2.52,166,0.21,0.102,0.384,5.4,0.21,535,0.716,1.73,0.119,0.716,11.1,2.3,0.181
B3,2.4,150,1.7,0.079,0.531,,1.7,502,,,,,,,
B4,2.96,142,0.64,0.078,0.35,4.5,0.64,414,,0.378,0.05,1.2,5.1,32,0.253
B5,3.42,164,0.07,0.07,0.376,5.8,0.07,511,0.27,,0.07,0.27,6.1,4.4,
B6,3.68,164,0.019,0.103,0.319,5.2,0.019,541,,,,,,,
B7,,,,,,,,,0.192,,,0.192,,,
